In test [1] the target is T1, APC2981-AA.
T1 chain: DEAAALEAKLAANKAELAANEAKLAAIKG
The test can be described thus: two-hybrid library CCmax.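 Further: natural log of median RNA to DNA barcode read ratio; higher means stronger binding.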

In test [2] the target is T2, APC3265-AA.
T2 chain: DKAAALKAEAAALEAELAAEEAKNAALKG
The test can be described thus: two-hybrid library CCmax.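 Further: natural log of median RNA to DNA barcode read ratio; higher means stronger binding.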 The note with it: mean of both orientations.

Test [3] concerns the target T3, APC3323-AA.
T3 chain: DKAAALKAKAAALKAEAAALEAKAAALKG
Briefly: two-hybrid library CCmax.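 Further: natural log of median RNA to DNA barcode read ratio; higher means stronger binding.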 The note with it: mean of both orientations.

The target in test [4] is T4, APC3354-AA.
T4 chain: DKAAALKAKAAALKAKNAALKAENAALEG
Briefly: two-hybrid library CCmax.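 Further: natural log of median RNA to DNA barcode read ratio; higher means stronger binding.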 The note with it: mean of both orientations.

The target in test [5] is T5, APC3881-AA.
T5 chain: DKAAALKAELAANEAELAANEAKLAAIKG
Briefly: two-hybrid library CCmax. The note with it: mean of both orientations.

Test [6] concerns the target T6, APC4100-AA.
T6 chain: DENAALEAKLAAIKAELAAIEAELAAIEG
Briefly: two-hybrid library CCmax. The note with it: mean of both orientations.

The target of test [7] is T7, APC4336-AA.
T7 chain: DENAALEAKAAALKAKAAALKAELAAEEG
The test can be described thus: two-hybrid library CCmax. The note with it: mean of both orientations.

For test [8], the target named is T8, APC5009-AA.
T8 chain: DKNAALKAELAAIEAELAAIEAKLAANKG
Briefly: two-hybrid library CCmax. The note with it: mean of both orientations.

Test [9] addresses T9, APC542-AA.
T9 chain: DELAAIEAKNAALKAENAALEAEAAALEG
The test can be described thus: two-hybrid library CCmax. The note with it: mean of both orientations.

Test [10] deals with T10, APC5531-AA.
T10 chain: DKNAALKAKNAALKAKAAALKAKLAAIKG
The test can be described thus: two-hybrid library CCmax. The note with it: mean of both orientations.

Test [11] has as its target T11, APC6088-AA.
T11 chain: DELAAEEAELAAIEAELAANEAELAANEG
Briefly: two-hybrid library CCmax. The note with it: mean of both orientations.

Test [12] addresses T12, APC7524-AA.
T12 chain: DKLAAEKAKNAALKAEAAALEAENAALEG
The test can be described thus: two-hybrid library CCmax. The note with it: mean of both orientations.

The target of test [13] is T13, APC8401-AA.
T13 chain: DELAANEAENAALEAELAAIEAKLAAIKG
The test can be described thus: two-hybrid library CCmax. The note with it: mean of both orientations.

Test [14] has as its target T14, APC8516-AA.
T14 chain: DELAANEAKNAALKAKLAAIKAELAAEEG
Briefly: two-hybrid library CCmax. The note with it: mean of both orientations.

For test [15], the target named is T15, APC9141-AA.
T15 chain: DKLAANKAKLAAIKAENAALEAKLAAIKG
The test can be described thus: two-hybrid library CCmax. The note with it: mean of both orientations.

In test [16] the target is T16, APC9182-AA.
T16 chain: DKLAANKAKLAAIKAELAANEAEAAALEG
The test can be described thus: two-hybrid library CCmax. The note with it: mean of both orientations.

The target of test [17] is T17, APC9291-AA.
T17 chain: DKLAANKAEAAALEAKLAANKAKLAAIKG
The test can be described thus: two-hybrid library CCmax. The note with it: mean of both orientations.

Test [18] concerns the target T18, APC9806-AA.
T18 chain: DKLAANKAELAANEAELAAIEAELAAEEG
Briefly: two-hybrid library CCmax. The note with it: mean of both orientations.

In test [19] the target is T19, 4H3497-bH.
T19 chain: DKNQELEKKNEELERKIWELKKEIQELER
Briefly: two-hybrid library CCNG1.

For test [20], the target named is T20, 4H3613-bH.
T20 chain: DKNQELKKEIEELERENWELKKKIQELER
Briefly: two-hybrid library CCNG1.

The target of test [21] is T21, 4H3628-bH.
T21 chain: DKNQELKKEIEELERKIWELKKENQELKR
The test can be described thus: two-hybrid library CCNG1.

The target in test [22] is T22, 4H3926-bH.
T22 chain: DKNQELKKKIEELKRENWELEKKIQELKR
The test can be described thus: two-hybrid library CCNG1.

Test [23] has as its target T23, 4H591-bH.
T23 chain: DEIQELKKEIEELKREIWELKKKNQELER
The test can be described thus: two-hybrid library CCNG1.

In test [24] the target is T24, 4H626-bH.
T24 chain: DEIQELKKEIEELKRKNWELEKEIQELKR
The test can be described thus: two-hybrid library CCNG1.

Test [25] concerns the target T25, 4H906-bH.
T25 chain: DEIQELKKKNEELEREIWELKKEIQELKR
The test can be described thus: two-hybrid library CCNG1.

B1: APC2981-AA (peptide)
chain: DEAAALEAKLAANKAELAANEAKLAAIKG
For B1, the interaction score is -1.58 in [1]; -1.62 in test [2]; -1.68 in test [3]; -2.3 in test [4]; -1.67 in test [5]; -1.62 in test [6]. For the same molecule, the interaction score was -2.05 in [7]; -1.75 in test [8]; -1.62 in test [9]; -1.79 in [10]; -1.49 in test [11]; -1.71 in test [12]. The interaction score in test [13] was -1.71; in test [14], -1.73; in [15], -1.53; in test [16], -1.76; in test [17], -1.74; in test [18], -1.51.

B2: 4H3497-bH (peptide)
chain: DKNQELEKKNEELERKIWELKKEIQELER
As for B2, the interaction score in [19] was -1.02; in test [20], -0.463; in [21], 0.758; in [22] it was -0.573; in test [23] it was -1.46; in test [24], -0.895. Further, in test [25], the interaction score is -0.345.
